What was measured:
[1] = biological target: D3H44 light chain Q124E_Q160E_T178D; test: LCCA (SPR), competitor L2 Q160K_T178R
[2] = biological target: D3H44 light chain Q160K_T178R (Table 8); test: LCCA (SPR), competitor L1 Q124E_Q160E_T178D
[3] = biological target: D3H44 light chain Q160K_T178R (Table 8); test: LCCA: H1 co-expressed with L1 and L2, SPR read-out of light chain tags; competing chain L1
[4] = biological target: D3H44 light chain Q124E_Q160E_T178D; test: LCCA: H1 co-expressed with L1 and L2, SPR read-out of light chain tags; competing chain L2
D3H44 light chain Q38R [5] = test: LCCA (SPR), competitor L1 Q38D
D3H44 light chain F98A = test: LCCA (SPR), competitor L1 Q38E
D3H44 light chain Q38R [6] = test: LCCA (SPR), competitor L1 Q38E
D3H44 light chain Q38R [7] = test: LCCA (SPR), competitor L2 Q38D
D3H44 light chain Q38R [8] = test: LCCA: H2 co-expressed with L1 and L2, SPR read-out of light chain tags; competing chain L2
[9] = biological target: D3H44 light chain Q160K_T178R (Table 8); test: LCCA: H2 co-expressed with L1 and L2, SPR read-out of light chain tags; competing chain L1
[10] = biological target: D3H44 light chain Q124E_Q160E_T178D; test: LCCA: H2 co-expressed with L1 and L2, SPR read-out of light chain tags; competing chain L2

“D3H44 heavy chain (Fab format) D146G_Q179R” gave an H1 L1 of H1 L1:H1 L2 (screen) [1] of 86.7, an H1 L1 of H1 L1:H1 L2 (verification) [1] of 97 and an H1 L2 of H1 L1:H1 L2 (screen) [2] of 1.4. For the same substance, the H1 L2 of H1 L1:H1 L2 (verification) [2] was 0.9, the H1 Readout (H1-L2) [3] was 1 and the H1 Readout (H1-L1) [4] was 93.
D3H44 heavy chain (Fab format) Q39R was tested, and the H1 L2 of H1 L1:H1 L2 (screen) (D3H44 light chain Q38R [5]) was 10.8, the H1 L2 of H1 L1:H1 L2 (screen) (D3H44 light chain F98A) was 4.3 and the H1 L2 of H1 L1:H1 L2 (verification) (D3H44 light chain F98A) was 4. The H1 L2 of H1 L1:H1 L2 (screen) (D3H44 light chain Q38R [6]) was 22.7, the H1 L2 of H1 L1:H1 L2 (verification) (D3H44 light chain Q38R [6]) was 8.4 and the H2 L1 of H2 L2:H2 L1 (verification) (D3H44 light chain Q38R [7]) was 11.1. The H2 Readout (H2-L1) (D3H44 light chain Q38R [8]) was 1.
“D3H44 heavy chain (Fab format) K145T_Q179D_S188L” was tested, and the H2 L1 of H2 L2:H2 L1 (screen) [1] was 7.2, the H2 L1 of H2 L2:H2 L1 (verification) [1] was 20 and the H2 L2 of H2 L2:H2 L1 (screen) [2] was 71. The H2 L2 of H2 L2:H2 L1 (verification) [2] was 74.3, the H2 Readout (H2-L2) [9] was 83 and the H2 Readout (H2-L1) [10] was 24.

— patent US20190085055A1
